Consider four molecules from patent US20020055173, “Method for preparing adenovirus vectors, vectors so prepared, and uses thereof” (published 2002).

For series [1], the target named is T1, Sp1 (UniProt P08047 P08047:2-785). In words: footprint; interaction substantially blocked. The note with it: tags: Promega; label: 5' end label in luciferase coding region.
Series [2] addresses T2, MAZ (UniProt P56270 P56270:1-477).
T2 sequence: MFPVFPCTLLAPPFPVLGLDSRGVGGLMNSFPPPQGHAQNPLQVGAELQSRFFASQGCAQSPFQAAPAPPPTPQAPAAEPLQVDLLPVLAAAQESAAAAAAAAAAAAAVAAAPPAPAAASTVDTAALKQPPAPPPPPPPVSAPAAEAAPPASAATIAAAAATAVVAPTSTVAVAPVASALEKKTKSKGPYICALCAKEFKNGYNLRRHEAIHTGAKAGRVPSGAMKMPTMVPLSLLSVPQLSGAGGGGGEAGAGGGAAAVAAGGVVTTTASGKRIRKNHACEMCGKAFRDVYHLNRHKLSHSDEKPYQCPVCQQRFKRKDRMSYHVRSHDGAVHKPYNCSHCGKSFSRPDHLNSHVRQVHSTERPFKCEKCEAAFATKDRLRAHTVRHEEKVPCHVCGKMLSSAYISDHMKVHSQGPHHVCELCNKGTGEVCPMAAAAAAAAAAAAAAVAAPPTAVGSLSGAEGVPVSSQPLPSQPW
Description: footprint; interaction substantially blocked. The following applies: tags: prepared as in Parks and Shenk 1996; label: 5' end label in luciferase coding region.

For series [3], the target named is T2, MAZ. In words: footprint; two MAZ sites. The following applies: tags: prepared as in Parks and Shenk 1996; label: 5' end label in luciferase coding region.
Series [4] concerns the target T1, Sp1. In words: footprint; one Sp1 site (-18GC). The note with it: tags: Promega; label: 5' end label in luciferase coding region.
Series [5] addresses T1, Sp1. Description: footprint; Sp1 footprint not altered. The following applies: tags: Promega; label: 5' end label in luciferase coding region.
Series [6] addresses T1, Sp1. Description: footprint; interaction completely blocked. The following applies: tags: Promega; label: 5' end label in luciferase coding region.

T1 sequence (P08047 2-785, one chain of several): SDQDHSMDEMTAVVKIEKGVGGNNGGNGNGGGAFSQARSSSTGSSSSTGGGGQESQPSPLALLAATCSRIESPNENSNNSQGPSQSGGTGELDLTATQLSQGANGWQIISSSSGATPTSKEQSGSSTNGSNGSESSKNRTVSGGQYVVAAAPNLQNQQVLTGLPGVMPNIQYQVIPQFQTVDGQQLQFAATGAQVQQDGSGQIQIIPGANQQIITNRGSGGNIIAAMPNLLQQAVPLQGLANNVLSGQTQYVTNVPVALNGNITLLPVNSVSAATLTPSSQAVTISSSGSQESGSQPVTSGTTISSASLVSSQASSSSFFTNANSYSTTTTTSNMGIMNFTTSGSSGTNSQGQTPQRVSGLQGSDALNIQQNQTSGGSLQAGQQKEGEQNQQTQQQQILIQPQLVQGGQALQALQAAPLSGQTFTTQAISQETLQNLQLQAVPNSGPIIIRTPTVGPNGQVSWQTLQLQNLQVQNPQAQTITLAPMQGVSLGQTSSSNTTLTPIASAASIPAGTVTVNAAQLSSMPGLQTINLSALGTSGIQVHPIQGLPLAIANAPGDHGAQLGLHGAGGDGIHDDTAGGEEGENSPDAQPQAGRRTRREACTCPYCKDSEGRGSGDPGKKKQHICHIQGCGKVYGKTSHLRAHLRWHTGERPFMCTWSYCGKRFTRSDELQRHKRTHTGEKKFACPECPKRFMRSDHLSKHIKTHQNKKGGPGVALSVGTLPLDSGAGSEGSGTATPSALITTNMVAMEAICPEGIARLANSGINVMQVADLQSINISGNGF

B1: minimal MLP M3 (-18GC and -36GC mutant) (dsDNA)
DNA 1: TGTTGTTGTTCTATAAAAGTGTGTGTGTGTGCGTTCGTCCTCACTCTCTTCC
DNA 2: GGAAGAGAGTGAGGACGAACGCACACACACACACTTTTATAGAACAACAACA
B1: the binding result with Sp1 [1] and with MAZ [2] was “no binding” each time.

B2: minimal MLP wild type (dsDNA)
DNA 1: TGAAGGGGGGCTATAAAAGGGGGTGGGGGCGCGTTCGTCCTCACTCTCTTCC
DNA 2: GGAAGAGAGTGAGGACGAACGCGCCCCCACCCCCTTTTATAGCCCCCCTTCA
Take B2: the binding result with MAZ [3] and with Sp1 [4] was “binds” throughout.

B3: minimal MLP M2 (-36GC mutant) (dsDNA)
DNA 1: TGTTGTTGTTCTATAAAAGGGGGTGGGGGCGCGTTCGTCCTCACTCTCTTCC
DNA 2: GGAAGAGAGTGAGGACGAACGCGCCCCCACCCCCTTTTATAGAACAACAACA
On to B3, for which the binding result in the series with Sp1 [5] is recorded as “binds”.

B4: minimal MLP M1 (-18GC mutant) (dsDNA)
DNA 1: TGAAGGGGGGCTATAAAAGTGTGTGTGTGTGTGTTCGTCCTCACTCTCTTCC
DNA 2: GGAAGAGAGTGAGGACGAACACACACACACACACTTTTATAGCCCCCCTTCA
As for B4, the binding result with Sp1 [6] was “no binding”.
